Biological target: GST-Dpn bHLH (UniProt Q26263 1-108)
Assay: EMSA

GST-Dpn bHLH, sequence (Q26263 1-108): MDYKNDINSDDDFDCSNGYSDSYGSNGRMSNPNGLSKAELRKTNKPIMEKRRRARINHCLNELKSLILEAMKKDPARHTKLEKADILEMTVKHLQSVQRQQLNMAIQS

Binder | binding result
4Cm (dsDNA) DNA 1: GATCTTGCCAAGCTCCACGATC DNA 2: GATCGTGGAGCTTGGCAAGATC | no binding
3Cm (dsDNA) DNA 1: GATCCCTGGCACCCTTCCTGATC DNA 2: GATCAGGAAGGGTGCCAGGGATC | no binding
(1+2)m (dsDNA) DNA 1: GATCTTAGGTAGCCCCCGGGACTGGCACAGGCACCTTGATC DNA 2: GATCAAGGTGCCTGTGCCAGTCCCGGGGGCTACCTAAGATC | no binding
